Assay results: patent US20250270319A1 (Alector, published 2025)

Tests used:
[1] = molecular target: T1, recombinant human CD33 protein (Sino Biologicals) (human, UniProt P20138 18-259); test: ELISA on recombinant CD33, relative binding, antibody concentration not given
T1 construct: Bought protein; also called recombinant CD33

[2] = molecular target: T2, human CD33 on primary human dendritic cells (human, UniProt P20138 18-364); test: flow cytometry on primary human dendritic cells, antibody at 2 ug/mL, fluorescent anti-human IgG secondary
T2 construct: Endogenous CD33 of monocyte-derived dendritic cells from healthy donors; also called Siglec-3
T2 sequence (P20138 18-364): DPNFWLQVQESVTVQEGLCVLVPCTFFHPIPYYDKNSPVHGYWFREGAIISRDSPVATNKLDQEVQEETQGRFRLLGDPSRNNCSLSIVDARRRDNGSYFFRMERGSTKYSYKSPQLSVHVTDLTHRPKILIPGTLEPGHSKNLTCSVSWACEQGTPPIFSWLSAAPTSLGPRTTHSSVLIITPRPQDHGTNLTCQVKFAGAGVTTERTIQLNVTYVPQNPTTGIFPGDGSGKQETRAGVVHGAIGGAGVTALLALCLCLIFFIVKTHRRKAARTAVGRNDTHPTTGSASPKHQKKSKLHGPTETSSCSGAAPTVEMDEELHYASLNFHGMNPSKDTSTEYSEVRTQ
Procedure: The 7 humanized anti-CD33 antibodies of 6C7 were evaluated for binding to primary dendritic cells by flow cytometry, and binding was compared to that of an anti-CD33 6C7 chimeric antibody that contained the variable heavy chain sequence and the variable light chain sequence of anti-CD33 antibody 6C7. Monocytes were isolated from blood from healthy human donors using the RosetteSep™ monocyte isolation antibody cocktail (StemCell Technologies). The isolated monocytes were differentiated into dendritic cells with 100 ng/mL GM-CSF and 100 ng/mL IL-4 (Peprotech). Dendritic cells were incubated with dilutions of the anti-CD33 antibodies for 30 minutes on ice in the dark, followed by a 30-minute incubation with a fluorescently-conjugated anti-human IgG secondary antibody. Cells were washed twice in FACS buffer (PBS+2% FBS, 2 mM EDTA), and flow cytometry was performed on a BD FACS Canto. Data were analyzed using FlowJo software (Ashland, OR).
The antibody variants were evaluated for binding to primary human dendritic cells, according to the method described in Example 1, at an antibody concentration of 2 μg/mL.

[3] = molecular target: T3, recombinant cynomolgus CD33 protein (NovoProtein) (cynomolgus); test: BLI (ForteBio), antibody on anti-human Fc sensor
T3 construct: Bought protein; also called cyno CD33
T3 sequence (chain, as listed by the source limits assumed): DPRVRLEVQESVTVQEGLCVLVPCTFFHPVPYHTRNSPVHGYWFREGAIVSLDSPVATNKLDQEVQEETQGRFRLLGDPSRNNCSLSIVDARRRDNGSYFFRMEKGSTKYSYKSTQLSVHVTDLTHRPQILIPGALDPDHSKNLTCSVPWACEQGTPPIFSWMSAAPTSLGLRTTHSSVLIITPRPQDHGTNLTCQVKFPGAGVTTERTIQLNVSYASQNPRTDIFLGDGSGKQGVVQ
Procedure: (§1) Affinity parameters of the antibody variants for human CD33 were measured by BioLayer Interferometry in a ForteBio assay according to standard techniques (Estep et al. (2013) MAbs 5(2): 270-8) and were compared to those of the parental antibody (antibody 6C7H8) and the parental humanized antibody (antibody 6C71H5). Briefly, the antibodies were captured on anti-human Fc Biosensors (Pall ForteBio). Recombinant human CD33 (10 nM, Sino Biologicals) was then bound to the captured anti-CD33 surface (200 s association time, 1200 s dissociation time). Local fitting was used to extract association and dissociation rate constants (kₐ and kd, respectively) for each antibody. Apparent affinity constants (KD) were calculated from the ratio kd/kₐ.
(§2) The affinity parameters of anti-CD33 antibody 6C7H54 for human CD33 and cynomolgus CD33 were measured by BioLayer Interferometry in a ForteBio assay, according to the method described above.

[4] = molecular target: T1, recombinant human CD33 protein (Sino …); test: BLI (ForteBio), antibody on anti-human Fc sensor
Procedure: as §1, §2

[5] = molecular target: T2, human CD33 on primary human dendritic …; test: cell-based or functional assay
[6] = molecular target: T2, human CD33 on primary human dendritic …; test: cell-based or functional assay; remark: listed apart in the source
[7] = molecular target: T3, recombinant cynomolgus CD33 protein …; test: ELISA, plate coated with recombinant CD33
[8] = molecular target: T1, recombinant human CD33 protein (Sino …); test: ELISA, plate coated with recombinant CD33
[9] = molecular target: T3, recombinant cynomolgus CD33 protein …; test: BLI (ForteBio)
Procedure: as §1, §2

T1 sequence (P20138 18-259 limits assumed): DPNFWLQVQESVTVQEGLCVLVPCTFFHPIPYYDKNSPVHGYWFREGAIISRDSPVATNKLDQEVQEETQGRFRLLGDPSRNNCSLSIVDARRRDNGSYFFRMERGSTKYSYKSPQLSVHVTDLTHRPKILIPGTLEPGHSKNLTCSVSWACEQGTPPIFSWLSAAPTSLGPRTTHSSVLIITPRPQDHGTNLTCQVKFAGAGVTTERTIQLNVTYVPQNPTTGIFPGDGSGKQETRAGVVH

binding result [1]	binding result [2]	Kd [3] [nM]	koff [3] [s⁻¹]	kon [3] [M⁻¹ s⁻¹]	Kd [4] [nM]	koff [4] [s⁻¹]	kon [4] [M⁻¹ s⁻¹]	Maximal downregulation (% CD33 remaining) [5] [% CD33 remaining]	Receptor downregulation, (pM, EC50) [5] [pM]	Fold increase in potency compared to 6C7H5 [6] [fold]	Receptor downregulation, (EC50) (pM) [6] [pM]	EC50 [7] [nM]	Relative maximal binding (cyno/human) [7]	Relative potency (human/cyno) [7]	EC50 [8] [nM]	fold difference of binding affinity, cynomolgus CD33 against human CD33 [9] [fold]	Binder
binds	binds	–	–	–	–	–	–	–	–	–	–	–	–	–	–	–	anti-CD33 antibody 6C7H11 (antibody, V domains shown, VH/VL only) VH: EVQLVESGGGLVQPGGSLRLSCAASGFTFSEYAMNWVRQAPGKGLEWVGEIRLKSNNYVTNYAASVKGRFTISRDDSKNSVYLQMNSLKTEDTGVYYCTRAGYYVPFAYWGQGTLVTVSS VL: QLVLTQSPSASASLGASVKLTCTLSSQHSTYTIEWYQQQPEKGPRYLMELKKGGSHSTGDGIPDRFSGSSSGAERYLTISSLQSEDEADYYCGVGDTIKEQFVYVFGGGTKLTVL
–	–	0.178	0.000105	589000	0.061	3.32e-05	545000	26.1	30.2	1.2	30.2	0.57	0.73	0.49	0.28	≤ 3	anti-CD33 antibody 6C7H54 (antibody, IgG1, V domains shown, VH/VL only; also called 6C7H54 IgG1; 6C754) VH: EVQLVESGGGLVQPGGSLRLSCAGSGFTFSNYEMNWVRQAPGKGLEWVAEIRLKSNNYVTNYAASVKGRFTISRDDSKNSVYLQMNSLKTEDTGVYYCTRAGYYVPFAYWGQGTLVTVSS VL: QLMLTQSPSASASLGASVKLTCTLSSQHSTYTIEWYQQQPGKGPRYLMELKKEGSHSTGDGIPDRFSGSSSGAERYLTISSLQSEDEADYYCGVGHTIKEQFVYVFGGGTKLTVL
